Paper PMC3374832, “The Structure of the Oligomerization Domain of Lsr2 from Mycobacterium tuberculosis Reveals a Mechanism for Chromosome Organization and Protection” (PLoS ONE, 2012)

Molecular target: the molecule itself
Experiment: SEC; S75 16/60GL or 10/300GL column, 20 mM tris-HCl pH 7.5, 150 mM NaCl; fresh sample, 14-week-old sample and sample treated with trypsin (1:500, 5 min, room temperature)

B1: Lsr2 N-terminal dimerization domain, construct Nterm2 (residues 1-61), freshly purified (domain or fragment)
chain: MAKKVTVTLVDDFDGSGAADETVEFGLDGVTYEIDLSTKNATKLRGDLKQWVAAGRRVGGR
notes: Lsr2 (Rv3597c) of Mycobacterium tuberculosis H37Rv, residues 1-61; also called N-Lsr2; Lsr2 N-terminal domain; not shown: His6, N-terminal, kept
- stoichiometry N: 2
